# B1: Her2/neu.8 (peptide)
# peptide: RWGLLLAL
# notes: HER2/neu peptide, 8-mer; also called RWGLLLAL
# B2: Herw/neu414.Y2F9 (peptide)
# peptide: AYPDSLPDF
# notes: HER2/neu analog peptide; label printed with a misprint (Herw/neu414)
# Molecular target: T1, HLA-A*0101 (purified HLA class I molecule) (human)
# T1 construct: also called HLA-A1
# Test: competition with 125I-labelled standard peptide on purified HLA-A*0101, gel filtration
row,Binder,relative binding ratio (IC50 of standard peptide / IC50 of test peptide) [ratio]
1,VVQGNLELTY,0.018
2,"PLTCSPQPEY [HER2/neu peptide, position 1130, 10 amino acids]",0.0072
3,"ETLEEITGYLY (also called Her2/neu.401) [HER2/neu peptide, position 401, 11 amino acids]",0.44
4,"ELMTFGAKPY [HER2/neu peptide, position 914, 10 amino acids]",0.0082
5,"ETHLDMLRHLY (also called Her2/neu.40) [HER2/neu peptide, position 40, 11 amino acids]",0.28
6,"CSKPCARVCY [HER2/neu peptide, position 334, 10 amino acids]",0.0016
7,"DMGDLVDAEEY [HER2/neu peptide, position 1013, 11 amino acids]",0.0027
8,"PSGVKPDLSY [HER2/neu peptide, position 601, 10 amino acids]",0.001
9,"RLLDIDETEY [HER2/neu peptide, position 868, 10 amino acids]",1.3
10,"RVLQGLPREY [HER2/neu peptide, position 545, 10 amino acids]",0.0015
11,YVMAGVGSPY,1.1
12,"PTHDPSPLQRY (H is used here) [HER2/neu peptide, position 1102, 11 amino acids]",0.016

# Molecular target: T2, HLA-A*0101 (human)
# T2 construct: also called HLA-A1
# Test: inhibition of 125I-labeled probe peptide binding to purified HLA-A*0101, gel filtration
row,Binder,IC50 [nM]
1,GTDLFEDNY (HER2/neu analog peptide) [Her2/neu.104.D3],0.9
2,EADQCVACAHY (HER2/neu peptide) [Her2/neu.580],250
3,VFETLEEITGY (HER2/neu peptide) [Her2/neu.399],5560
4,ETMPNPEGRY (HER2/neu analog peptide) [Her2/neu.280.T2],3.9
5,GTDMKLRLPY (HER2/neu analog peptide) [Her2/neu.28.Y10],50
6,VTACPYNY (HER2/neu peptide) [Her2/neu.296],250
7,"PTDCCHEQCAA (HER2/neu peptide, 11-mer) [Her2/neu.232]",58
8,"ASCVTACPY (HER2/neu peptide, 9-mer) [Her2/neu.293]",455
9,ATCVTACPY (HER2/neu analog peptide) [Her2/neu.293.T2],49
10,ETHLDMLRHLY (HER2/neu peptide) [Her2/neu.40],89
11,HTDMLRHLY (HER2/neu analog peptide) [Her2/neu.42.T2],1.9

# Molecular target: HLA-A*2402 (human)
# Test: inhibition of 125I-labeled probe peptide binding to purified HLA-A*2402, gel filtration
row,Binder,IC50 [nM]
1,B1,480
2,AYSLTLQGL (HER2/neu peptide) [Her2/neu.440],92
3,AYSLTLQGF (HER2/neu analog peptide) [Her2/neu.440.F9],52
4,LYISAWPDSL (HER2/neu peptide) [Her2/neu.410],143
5,LYISAWPDSF (HER2/neu analog peptide) [Her2/neu.410.F10],10
6,B2,24
7,RYTHQSDVF (HER2/neu analog peptide) [Her2/neu.898.Y2F9],60
8,SYMPIWKF (HER2/neu peptide) [Her2/neu.609],38
9,"TYLPTNASL (HER2/neu peptide, 9-mer) [Her2/neu.63]",316
10,TYLPTNASF (HER2/neu analog peptide) [Her2/neu.63.F9],44
11,CYGLGMEHF (HER2/neu analog peptide) [Her2/neu.342.F9],164
12,SYGVTVWEL (HER2/neu peptide) [Her2/neu.907],100

# Molecular target: T3, HLA-A*0301 (human)
# T3 construct: also called HLA-A3
# Test: inhibition of 125I-labelled standard peptide 941.12 binding to purified HLA-A*0301, gel filtration
row,Binder,relative binding ratio (IC50 of standard peptide / IC50 of test peptide) [ratio]
1,"PASPLDSTFY [HER2/neu peptide, position 996, 10 amino acids]",0.0003

# Molecular target: T4, HLA-A*0301 (human)
# T4 construct: also called HLA-A3
# Test: competition with 125I-labelled probe peptide for purified HLA-A*0301, gel filtration; ratio to standard peptide 941.12
row,Binder,relative binding ratio (IC50 of standard peptide / IC50 of test peptide) [ratio]
1,"ESMPNPEGR (Synthetic peptide) [HER2/neu peptide, position 280, 9 amino acids (ESMPNPEGR)]",0.0003
2,"DVRPQPPSPR (Synthetic peptide) [HER2/neu peptide, position 1144, 10 amino acids (DVRPQPPSPR)]",0.0003
3,"DLSYMPIWK (Synthetic peptide) [HER2/neu peptide, position 607, 9 amino acids (DLSYMPIWK)]",0.0005
4,"DLAARNVLVK (Synthetic peptide) [HER2/neu peptide, position 845, 10 amino acids (DLAARNVLVK)]",0.0018
5,"ETLEEITGY (Synthetic peptide) [HER2/neu peptide, position 401, 9 amino acids (ETLEEITGY)]",0.0002
6,"DSECRPRFR (Synthetic peptide) [HER2/neu peptide, position 962, 9 amino acids (DSECRPRFR)]",-0.0002
7,"EVTAEDGTQR (Synthetic peptide) [HER2/neu peptide, position 321, 10 amino acids (EVTAEDGTQR)]",0.0002
8,"ETEYHADGGK (Synthetic peptide) [HER2/neu peptide, position 874, 10 amino acids (ETEYHADGGK)]",0.0003
9,"ELMTFGAKPY (Synthetic peptide) [HER2/neu peptide, position 914, 10 amino acids (ELMTFGAKPY)]",0.0002
10,"ELHCPALVTY (Synthetic peptide) [HER2/neu peptide, position 265, 10 amino acids (ELHCPALVTY)]",0.0002

# Molecular target: HLA-A*1101 (human)
# Test: competition with 125I-labelled probe peptide for purified HLA-A*1101, gel filtration; ratio to standard peptide 940.06 [..] (6.0 nM)
row,Binder,relative binding ratio (IC50 of standard peptide / IC50 of test peptide) [ratio]
1,"VTGASPGGLR (also called Her2/neu.129) [HER2/neu peptide, position 129, 10 amino acids]",0.0005
2,"WIPDGENVK (also called Her2/neu.739) [HER2/neu peptide, printed position 730 (taken as 739), 9 amino acids]",0.0001
3,"YVLIAHNQVR (also called Her2/neu.83) [HER2/neu peptide, position 83, 10 amino acids]",0.0013
4,"WMALESILR (also called Her2/neu.888) [HER2/neu peptide, position 888, 9 amino acids]",-0.0002
5,"WMALESILRR (also called Her2/neu.888) [HER2/neu peptide, position 888, 10 amino acids]",0.0016
6,"VSEFSRMAR (also called Her2/neu.973) [HER2/neu peptide, position 973, 9 amino acids]",0.0021
7,VVQGNLELTY (also called Her2/neu.55),0.011
8,"YLEDVRLVHR (also called Her2/neu.835) [HER2/neu peptide, position 835, 10 amino acids]",0.0001
9,"WMIDSECRPR (also called Her2/neu.959) [HER2/neu peptide, position 959, 10 amino acids]",0.0002
10,"VTAEDGTQR (also called Her2/neu.322) [HER2/neu peptide, position 322, 9 amino acids]",0.014
11,YVMAGVGSPY (also called Her2/neu.772),0.012

# Molecular target: T5, HLA-A*0301 (human)
# T5 construct: also called HLA-A3
# Test: competitive inhibition of 125I-labelled standard peptide binding to purified HLA-A*0301, gel filtration; standard 941.12 [..] (11 nM)
row,Binder,relative binding ratio (IC50 of standard peptide / IC50 of test peptide) [ratio]
1,"LCYQDTILWK (Synthetic peptide) [HER2/neu peptide, position 161, 10 amino acids]",0.0081
2,"LALTLIDTNR (Synthetic peptide) [HER2/neu peptide, position 179, 10 amino acids]",-0.0002

# — US20040018971A1 (published 2004)
